The subject of the data set is TfiI-s (N-terminally shortened TfiI) lacks first 12 amino acids; translation presumed to start at TTG codon (Thermus filiformis). Put plainly: cleavage_in_vitro. Particulars: cell lysate; lambda DNA substrate.

The text below walks through data of patent publication US6133008.

lambda DNA came in with an activity (units/g wet cells) of 100000.
